Measurements taken from publication PMC6325244, “Regulation of the Peptidoglycan Polymerase Activity of PBP1b by Antagonist Actions of the Core Divisome Proteins FtsBLQ and FtsN” (mBio, 2019).

Assays:
PBP1b [1] = target: T1, PBP1b (E. coli, UniProt P02919 1-844, fluorescent ampicillin label added after elution); experiment: pull-down + SEC; PBP1b copurified with FtsN or FtsN W83L on a nickel column followed by gel filtration; SDS-PAGE, Coomassie, band amounts by Image Quant TL
T1 construct: PBP1b, E. coli, class A PBP, bifunctional glycosyltransferase/transpeptidase; Untagged as prey of HisFtsBLQ, HisFtsBL, HisFtsQ and HisFtsW; also called untagged PBP1b; source: E. coli C43 (DE3) or Lemo21 (DE3), coexpressed from Duet vectors, in detergent extract of membranes
T1 sequence (looked up): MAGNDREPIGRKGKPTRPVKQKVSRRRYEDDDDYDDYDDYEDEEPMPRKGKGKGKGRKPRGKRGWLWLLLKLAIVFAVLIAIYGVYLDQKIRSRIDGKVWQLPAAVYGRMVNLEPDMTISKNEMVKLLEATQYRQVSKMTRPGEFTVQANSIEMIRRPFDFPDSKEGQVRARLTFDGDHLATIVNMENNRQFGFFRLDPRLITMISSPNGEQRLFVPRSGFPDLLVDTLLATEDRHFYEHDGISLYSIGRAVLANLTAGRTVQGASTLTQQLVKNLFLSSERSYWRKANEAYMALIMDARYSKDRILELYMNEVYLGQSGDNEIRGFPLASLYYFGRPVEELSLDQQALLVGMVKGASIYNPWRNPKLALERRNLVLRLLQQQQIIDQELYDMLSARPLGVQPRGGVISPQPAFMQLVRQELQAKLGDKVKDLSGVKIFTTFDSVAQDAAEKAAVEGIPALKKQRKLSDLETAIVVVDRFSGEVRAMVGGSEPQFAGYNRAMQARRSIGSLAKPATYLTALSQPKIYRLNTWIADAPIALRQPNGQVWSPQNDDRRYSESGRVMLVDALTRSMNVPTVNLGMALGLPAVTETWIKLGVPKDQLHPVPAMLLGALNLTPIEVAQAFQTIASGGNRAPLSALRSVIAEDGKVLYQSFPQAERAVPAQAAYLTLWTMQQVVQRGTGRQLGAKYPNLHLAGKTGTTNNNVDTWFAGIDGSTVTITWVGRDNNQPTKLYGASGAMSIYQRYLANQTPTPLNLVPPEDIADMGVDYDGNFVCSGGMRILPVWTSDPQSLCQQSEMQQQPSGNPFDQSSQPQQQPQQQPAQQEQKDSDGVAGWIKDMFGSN

PBP1b [2] = target: T1, PBP1b

FtsN^W83L (from UniProt P29131 1-319) (natural protein)
PBP1b/FtsN ratio in the copurified complex after gel filtration (parts PBP1b of 100 (PBP1b/FtsN 20/80)) (PBP1b [1]): 20 | fold decrease in stimulation of the GTase activity of PBP1b (continuous fluorescence assay), initial velocity against wild-type FtsN (PBP1b [2]): 2 fold

B1: FtsN (natural protein, E. coli, UniProt P29131 1-319, looked up)
chain: MAQRDYVRRSQPAPSRRKKSTSRKKQRNLPAVSPAMVAIAAAVLVTFIGGLYFITHHKKEESETLQSQKVTGNGLPPKPEERWRYIKELESRQPGVRAPTEPSAGGEVKTPEQLTPEQRQLLEQMQADMRQQPTQLVEVPWNEQTPEQRQQTLQRQRQAQQLAEQQRLAQQSRTTEQSWQQQTRTSQAAPVQAQPRQSKPASSQQPYQDLLQTPAHTTAQSKPQQAAPVARAADAPKPTAEKKDERRWMVQCGSFRGAEQAETVRAQLAFEGFDSKITTNNGWNRVVIGPVKGKENADSTLNRLKMAGHTNCIRLAAGG
notes: FtsN, E. coli, bitopic membrane protein; also called FtsN^WT; FtsNWT; source: E. coli C43 (DE3) or Lemo21 (DE3), coexpressed from Duet vectors, in detergent extract of membranes; also purified
PBP1b/FtsN ratio in the copurified complex after gel filtration (PBP1b [1]; partners not purified): ~40 parts PBP1b of 100 (PBP1b/FtsN 40/60)
